Experiments:
[1] = molecular target: T1, astrocyte specific glutamate transporter, SLC1A2 (Rattus norvegicus, UniProt P31596); assay: Whole cell patch recording of NMDA-mediated EPSCs in cortical pyramidal neurons; assay type: cell-based
T1 construct: In vitro intracellular recordings were obtained from pyramidal neurons (layer 2-3) 23-28 h following the in vivo treatment; from tissue; host or cells: acute rat neocortical slices (astrocytic transporter; recordings from layer 2-3 pyramidal neurons)
T1 sequence (P31596 whole entry): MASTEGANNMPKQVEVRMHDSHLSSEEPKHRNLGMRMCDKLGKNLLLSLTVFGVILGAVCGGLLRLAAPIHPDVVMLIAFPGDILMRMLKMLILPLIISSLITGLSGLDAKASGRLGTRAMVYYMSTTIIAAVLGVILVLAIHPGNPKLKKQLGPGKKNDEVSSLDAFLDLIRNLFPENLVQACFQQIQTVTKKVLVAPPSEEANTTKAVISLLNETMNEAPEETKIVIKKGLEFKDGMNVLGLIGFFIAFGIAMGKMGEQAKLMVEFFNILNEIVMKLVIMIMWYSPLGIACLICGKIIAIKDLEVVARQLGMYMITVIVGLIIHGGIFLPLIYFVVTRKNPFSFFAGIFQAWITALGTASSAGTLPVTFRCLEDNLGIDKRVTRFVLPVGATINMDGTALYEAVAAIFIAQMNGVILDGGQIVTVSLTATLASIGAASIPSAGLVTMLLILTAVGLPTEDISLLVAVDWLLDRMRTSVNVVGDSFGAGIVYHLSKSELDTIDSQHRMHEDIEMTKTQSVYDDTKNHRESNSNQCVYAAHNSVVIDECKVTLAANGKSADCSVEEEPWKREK
Procedure: In vitro intracellular recordings were obtained from pyramidal neurons (layer 2-3) 23-28 h following the in vivo treatment with albumin or from control rats. Currents were recorded using the whole cell patch configuration, as described previously (Pavlovsky et al., 2003). In brief, glass pipettes were pulled from capillaries using a vertical puller (Narashige, Greenvale, N.Y.) and filled with a solution comprising (in mM): 150 CsCl, 1 MgCl2, 10 HEPES, 4 Na2ATP, 0.1 CaCl2, and 1.1 mM EGTA, pH adjusted to 7.2 with a final osmolarity of 290-310 mOsm. Cells were visualized using infrared differential interference phase contrast video-microscopy. Recordings were performed using AxoPatch 700B (Axon Instruments, Foster City, Calif.), digitized at 10 kHz and recorded using pClamp 9.2 (Axon Instruments, Foster City, Calif.). Patch pipette's resistance was 4-5 MΩ. Series resistance was not electronically compensated; however, cells in which series resistance varied by more than 25% were excluded from the analysis. Stimulation protocols were started at least 5 min following impalement to allow intracellular dialysis with the pipette solution. Excitatory post-synaptic currents (EPSCs) were evoked—using a bipolar stimulating electrode positioned <200 μm from the recorded cell—at 75% of the intensity producing maximal EPSCs. N-methyl-D-aspartic acid (NMDA) currents were recorded in the presence of blockers of α-amino-3-hydroxy-5-methyl-4-isoxazole-propionic acid (AMPA)/kainate (i.e., 30 μM CNQX) and of gamma-aminobutyric acid A (GABAA) receptors (i.e., 10 μM bicuculine methiodide). Cells were voltage clamped to +40 mV to alleviate NMDA receptor blockade and inactivate fast Na^+ currents. In some experiments, dihydrokainic acid (DHK, Tocris, Bristol, UK), 100 μM, was added to the extracellular solution to selectively block the astrocyte specific glutamate transporter, SLC1A2 (see Arriza et al., 1994).
To confirm that the transcriptional changes induced by albumin were associated with altered cellular functions, the clearance of extracellular glutamate and potassium in cortical slices 24 hours following albumin treatment in vivo was investigated. To measure synaptic glutamate levels during neuronal activation, the slowly inactivating (Lester et al., 1990) NMDA currents in cortical neurons were recorded by using the whole-cell patch configuration (in the presence of non-NMDA glutamate and GABA receptor blockers, see Methods). Cells were clamped at +40 mV to prevent a potential confounding effect of post-synaptic depolarization due to the accumulation of synaptic [K^+]o. […] Synaptic glutamate elicited by 50 extracellular stimulations at 2, 5, 10, 20, 50 and 100 Hz before and after adding the astrocytic SLC1A2 specific inhibitor, DHK was measured. In neurons from control animals, DHK had no effect on single EPSCs or EPSCs elicited at low stimulation frequencies (<20 Hz). […] The same experiments were then repeated 24 h following cortical application of albumin (i.e. during epileptogenesis). In contrast to the control experiments, DHK had no effect on EPSC amplitude in treated slices (FIG. 13b-c, right), supporting reduced expression of the astrocytic transporter SLC1A2.

[2] = tested on: neocortical slices; assay: Field potential recordings of epileptiform activity in neocortical slices; assay type: cell-based, rat
Procedure: Brain slices for the in vitro experiments were prepared by means of standard techniques (Ivens et al., 2007; Pavlovsky et al., 2003; Seiffert et al., 2004). Slices were transferred to a recording chamber where they were incubated in aCSF containing BSA (6.7 mg/ml), TGF-β1 (10 ng/ml) or artificial serum (aSerum, composition based on aCSF with the following changes, composition in mM: 0.8 MgSO4, 1.3 CaCl2, 5.7 KCl, 1 L-glutamine, 0.1 albumin). To block the activity of TGF-β1, slices were incubated in aCSF containing SB431542 (10 μM) before the addition of TGF-β1 (10 ng/ml). To block TGF-βRs, slices were incubated in aCSF containing SB431542 (10 μM) and TGF-βRII antibody (10 μg/ml) for 30 min followed by incubation in BSA in the presence of TGF-βR blockers. For detection of epileptiform activity, field potentials were recorded >4 h following incubation in cortical layer IV using extracellular glass microelectrodes (˜3 MΩ) in response to bipolar stimulation at the border of white and grey matter.
To assess the hypothesis that activation of the TGF-β signaling pathway is the mechanism underlying albumin-induced epileptogenesis, we activated this pathway directly by incubating neocortical slices with TGF-β1 (10 ng/mL) in artificial cerebrospinal fluid (aCSF) and performed electrophysiological recordings. These recordings were compared to those of slices treated with a solution containing serum levels of electrolytes and 0.1 mM albumin (aSERUM, previously shown to induce epileptogenesis; Ivens et al., 2007), albumin in aCSF, or aCSF (control). […] When albumin was added to the control aCSF solution, epileptiform activity was recorded in response to stimulation of the white matter (n=8 out of 12 slices, 6 animals). Importantly. TGF-β1 treatment was sufficient to recapitulate epileptiform activity similar to that seen following treatment with aSERUM and albumin in aCSF (n=5 out of 5 slices, 4 animals; n=7 out of 9 slices, 3 animals; and n=8 out of 12 slices, 6 animals, respectively). In all three cases, the evoked epileptiform activity, was all-or-none in nature, paroxysmal and prolonged, similar to that seen following BBB opening with bile salts (Ivens et al., 2007; Seiffert et al., 2004) and typical to that observed in acute models of epilepsy (Gutnick et al., 1982).
To further confirm that the TGF-β1 induced epileptiform activity was dependent on the TGF-βR mediated pathway, we performed additional trials of the above experiments in the presence of two TGF-βR blockers (SB431542, the TGF-βRI kinase activity inhibitor and TGF-βRII antibody).

[3] = 24 h following albumin treatment in vivo, clamped at +40 mV

albumin: bovine serum albumin, used to induce epileptogenesis
Mean single EPSC amplitude [1, 3]: 505±100 pA
Mean single EPSC rise-time [1, 3]: 14.5 ± 0.5 ms
EPSC amplitude on repetitive stimulation, compared to controls ([1]; 24 h following cortical application of albumin): stronger depression
integral of the field potential ([2]; inducer alone, without TGF-βR blockers): 117.2±35.4 mV*ms
evoked epileptiform activity in response to stimulation of the white matter, slices showing it ([2]; slices incubated with the inducer): 8 out of 12

Reference: patent US10668049B2, “Methods of treating cognitive decline with transforming growth factor beta inhibitors” (The Regents of the University of California, priority 2008, dated 2020)
